Targets include FGFR1β (IIIc)/Fc (Homo sapiens, UniProt P11362, strain, biotinylated); FGFR2 (IIIb) (Homo sapiens (assumed), UniProt P21802-3); FGFR3 (IIIb) (Homo sapiens (assumed), UniProt P22607-2); FGFR4 (Homo sapiens (assumed), UniProt P22455); FGFR1 (IIIb) (Homo sapiens, FGFR1 splice form IIIb, UniProt P11362, strain).
What all share (assay): SPR

FGFR4, sequence (P22455 22-802): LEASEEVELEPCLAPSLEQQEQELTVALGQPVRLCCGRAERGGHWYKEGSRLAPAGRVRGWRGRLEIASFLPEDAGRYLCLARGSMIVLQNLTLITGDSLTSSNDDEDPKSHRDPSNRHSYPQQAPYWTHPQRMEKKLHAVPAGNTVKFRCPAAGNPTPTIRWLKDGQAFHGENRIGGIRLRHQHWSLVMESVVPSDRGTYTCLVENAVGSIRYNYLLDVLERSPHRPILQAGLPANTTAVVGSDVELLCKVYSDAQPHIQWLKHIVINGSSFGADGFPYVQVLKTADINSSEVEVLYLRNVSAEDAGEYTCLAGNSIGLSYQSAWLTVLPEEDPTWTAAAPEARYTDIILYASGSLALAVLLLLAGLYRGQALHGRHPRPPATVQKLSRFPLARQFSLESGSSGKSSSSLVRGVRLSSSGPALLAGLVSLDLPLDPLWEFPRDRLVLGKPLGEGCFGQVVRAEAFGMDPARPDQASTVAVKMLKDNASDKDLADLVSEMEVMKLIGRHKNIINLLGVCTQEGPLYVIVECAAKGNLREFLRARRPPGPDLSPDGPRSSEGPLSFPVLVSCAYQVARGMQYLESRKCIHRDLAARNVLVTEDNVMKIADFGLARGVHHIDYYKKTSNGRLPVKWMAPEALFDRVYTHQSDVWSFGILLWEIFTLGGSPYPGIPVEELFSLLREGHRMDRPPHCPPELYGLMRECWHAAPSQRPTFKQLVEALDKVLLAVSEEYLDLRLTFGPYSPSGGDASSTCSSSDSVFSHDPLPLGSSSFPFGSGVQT
FGFR1 (IIIb), sequence (P11362 whole entry, looked up, change not shown, canonical isoform): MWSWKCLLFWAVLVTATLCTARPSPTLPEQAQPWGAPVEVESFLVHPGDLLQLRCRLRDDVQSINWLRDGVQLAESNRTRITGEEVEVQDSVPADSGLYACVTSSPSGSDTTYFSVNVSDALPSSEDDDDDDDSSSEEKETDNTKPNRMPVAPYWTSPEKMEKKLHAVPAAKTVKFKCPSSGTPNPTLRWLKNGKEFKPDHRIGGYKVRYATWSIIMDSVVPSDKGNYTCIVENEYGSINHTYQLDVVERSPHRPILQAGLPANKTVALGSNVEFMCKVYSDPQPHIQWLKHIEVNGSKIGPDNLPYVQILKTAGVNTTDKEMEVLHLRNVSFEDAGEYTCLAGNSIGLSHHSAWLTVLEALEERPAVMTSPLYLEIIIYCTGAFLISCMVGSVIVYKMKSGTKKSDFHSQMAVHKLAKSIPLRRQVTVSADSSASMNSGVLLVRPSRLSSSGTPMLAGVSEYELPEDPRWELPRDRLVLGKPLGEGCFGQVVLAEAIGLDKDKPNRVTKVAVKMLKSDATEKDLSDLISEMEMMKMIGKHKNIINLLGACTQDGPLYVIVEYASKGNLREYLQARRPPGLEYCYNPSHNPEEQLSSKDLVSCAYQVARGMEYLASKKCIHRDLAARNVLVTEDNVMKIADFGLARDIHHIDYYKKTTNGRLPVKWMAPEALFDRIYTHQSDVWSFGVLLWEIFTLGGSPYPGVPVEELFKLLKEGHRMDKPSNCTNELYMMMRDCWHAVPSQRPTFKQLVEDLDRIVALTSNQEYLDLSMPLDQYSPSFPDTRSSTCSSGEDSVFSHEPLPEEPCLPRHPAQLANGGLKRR

B1: clone VM35 (VHH)
VHH: QVQLVESGGGLVQAGGSLRLSCAVPGSIFRFNTMGWYRQPPGKQRELVAQMSRGGITKYGDSVKGRFTITRDNAKNTVHLQMNSLKPEDTAVYYCAGSYYSGSYYYPSPQGFSVWGQGTQVTVSP
What is called Kd is the constant that tells how readily two partners part at equilibrium. Higher therefore signals weaker binding. Usually koff stands for the first-order rate constant of dissociation. For orientation: kon means the rate constant with which the complex forms. High values mean faster complex formation, low ones slower complex formation. Consider B1, for which, in the assay with FGFR1β (IIIc)/Fc, the Kd came out at 1.02 nM, the koff came out at 0.00114 s⁻¹ and the kon worked out at 1.11e+06 M⁻¹ s⁻¹.

B2: clone VM34 (VHH)
VHH: QLQLVESGGGSVQAGGSLRLSCAASRSLSRFNVWTWYRQAPVKQRELVASITKSGDTNYAESVKGRFIISRDDDKNTVYLQMNNLKSEDTGIYYCAGSYYSGSYLYPSPGGFSVWGQGTQVTVSS
Turning to B2, the binding result with FGFR2 (IIIb) and with FGFR3 (IIIb) was “no binding” in each case. In addition, the values for the dissociation constant (Kd) with FGFR4, with FGFR1β (IIIc)/Fc and with FGFR1 (IIIb) were 22.2 nM, 1.74 nM and 92.8 nM, respectively. For the same molecule, the koff is 0.0527 s⁻¹ in the assay with FGFR4, 0.00142 s⁻¹ in the assay with FGFR1β (IIIc)/Fc and 0.0254 s⁻¹ in the assay with FGFR1 (IIIb). Also, the kon with FGFR4 was 2.37e+06 M⁻¹ s⁻¹; in the assay with FGFR1β (IIIc)/Fc it was 819000 M⁻¹ s⁻¹; with FGFR1 (IIIb), 274000 M⁻¹ s⁻¹.

Values taken from publication PMC9852558 (The Journal of Biological Chemistry, 2022).
